Here are results for one molecule from US20060205037A1, “Modified transferrin fusion proteins” (priority 2003, published 2006).

One test relates to diabetic db/db mice. The test is described as follows: overnight fast and IPGTT in diabetic mice after SC administration. It counts as in vivo. The settings on record: SC at 9 pm, fasted overnight; GLP-1-Tf 1 or 10 mg. On the procedure: A group of diabetic mice were given Tf or GLP-1-Tf via SC administration at 9 pm, fasted overnight and an IPGTT performed the next morning. The fasted Tf-treated animals had lower fasting blood glucose than ad libitum fed animals (238±39 versus 358±23 mg/dl; compare 0 time/fasted animals of FIG. 10c with 0 time/fed animals of FIG. 10a), and additionally, the animals given 1 or […] had lower fasting blood glucose (132±27 mg/dl) than those given Tf alone.

For the next test, the system named is db/db mice. The test can be described thus: β-cell proliferation (BrdU) and β-cell mass in db/db mice. It counts as in vivo. The settings on record: 10 mg/kg IP, third day. On the procedure:
db/db mice, 6 per time point, received one IP injection of Tf (10 mg/kg) or GLP-1-Tf (10 mg/kg) and were sacrificed 1, 2 and 3 days later for measurement of β-cell proliferation and 3, 5, 8 and 10 days later for measurement of islet mass. Sixty mg/kg 5-bromo-2-deoxyuridine (BrdU, Sigma) was injected IP 6 hours before sacrifice. BrdU is a thymidine analog that is incorporated during S-phase of cell mitosis. Pancreata were removed, fixed overnight in 4% buffered formalin, processed for embedding in paraffin and histological sections (4 μm) mounted on poly-1-lysine-coated glass slides. BrdU was detected with a BrdU antibody (Sigma, 1:500 and also confirmed with Zymed antibody, 1:250) and BrdU staining kit (Zymed Laboratories Inc). Five to six hundred islets from each condition were then visualized and the number of islets that contained BrdU+ cells as well as the percent BrdU+ nuclei per total number of islet cells was quantified. For insulin staining and determination of β-cell mass histological sections were treated with a guinea-pig insulin antibody (Linco). […] The total pancreatic area and β-cell positive area for every image were quantified using MetaMorph 4.6.3 software (Universal Imaging Inc., West Chester).

B1: Tf: transferrin with the two N-linked glycosylation sites eliminated, expressed in S. cerevisiae; control protein (protein)
chain: VPDKTVRWCAVSEHEATKCQSFRDHMKSVIPSDGPSVACVKKASYLDCIRAIAANEADAVTLDAGLVYDAYLAPNNLKPVVAEFYGSKEDPQTFYYAVAVVKKDSGFQMNQLRGKKSCHTGLGRSAGWNIPIGLLYCDLPEPRKPLEKAVANFFSGSCAPCADGTDFPQLCQLCPGCGCSTLNQYFGYSGAFKCLKDGAGDVAFVKHSTIFENLANKADRDQYELLCLDNTRKPVDEYKDCHLAQVPSHTVVARSMGGKEDLIWELLNQAQEHFGKDKSKEFQLFSSPHGKDLLFKDSAHGFLKVPPRMDAKMYLGYEYVTAIRNLREGTCPEAPTDECKPVKWCALSHHERLKCDEWSVNSVGKIECVSAETTEDCIAKIMNGEADAMSLDGGFVYIAGKCGLVPVLAENYNKADNCEDTPEAGYFAVAVVKKSASDLTWDNLKGKKSCHTAVGRTAGWNIPMGLLYNKINHCRFDEFFSEGCAPGSKKDSSLCKLCMGSGLNLCEPNNKEGYYGYTGAFRCLVEKGDVAFVKHQTVPQNTGGKNPDPWAKNLNEKDYELLCLDGTRKPVEEYANCHLARAPNHAVVTRKDKEACVHKILRQQQHLFGSNVADCSGNFCLFRSETKDLLFRDDTVCLAKLHDRNTYEKYLGEEYVKAVGNLRKCSTSSLLEACTFRRP
With B1, the fasting blood glucose in the test on diabetic db/db mice stood at 238 ± 39 mg/dL. Further, the “islets with 1 or more BRDU+ nuclei” value in the test on db/db mice came to 35%.
